{"source": "the DeepSol protein solubility set"}
{"assay": "soluble on expression in E. coli; label from the status in PepcDB or PDB records"}
{"sequence": "MYAYDIYEPIGRKDGEIFPVIFALHGFGGDELDMAGRLELLMDRFVVVSMRGDVEYGPTYGFYHMVTEGDPNAREVDYTSLRVAEFIDEVCNDYVSIDKNQIFLVGFDQGAVLTISIMQSYGGQYKAAALLSGRLPHYLEERPANLMLKDKRIFIGHGIEDAVIQIAEAEEIAQFFQKMGCNVEKHSYFVGHNVNEAEEDDLYSWFESFLP", "soluble on expression in E. coli": "not soluble"}
{"sequence": "MQLQKLVNMFGGDLTRRYGQKVHKLTLHGGFSCPNRDGTIGRGGCTFCNVASFADEAHEHRSIAEQLAHQANLVNRAKRYLAYFQAYTSTFAEVQVLRSMYQQAVSQANIVGLCVGTRPDCVPDAVLDLLCEYKDQGYEVWLELGLQTAHDKTLHRINRGHDFACYQRTTQLARQRGLKVCSHLIVGLPGEGQAECLQTLERVVETGVDGIKLHPLHIVKGSIMAKAWEAGRLNGIELEDYTLTAGEMIRHTPPEVIYHRISASARRPTLLAPLWCENRWTGMVELDRYLNEHGVQGSALGRPWLPPTELEHHHHHH", "soluble on expression in E. coli": "not soluble"}
{"sequence": "MGSDKIHHHHHHMQHTIQHLYKTHGDDGLLYAWFLSMHTRVDIILCCQKSENELMLVVNSIYDTLRQLERIANYYDPSSELSQVNQRASTAPVMISQSLYRMISLCTEYHKKTLGCFDVTIHSDNYNQDTIHSIHLYPEAQSVFFQQAGTTINLSGFLKGYALDKIREILKVHIIANALINMGNSSVLALGNHPVGTGWKVSFDDQASTTKNHKTQSILLNNECLTTSGNNSDDRKHIISPSSGKPLEGVRQVTVVTDDGTTGEILSTSLFVANQKQRELIMSEFLPKRVIDLELCQMV", "soluble on expression in E. coli": "not soluble"}
{"sequence": "GSHMTNDIYFMTLAIEEAKKAAQLGEVPIGAIITKDDEVIARAHNLRETLQQPTAHAEHIAIERAAKVLGSWRLEGCTLYVTLEPCVMCAGTIVMSRIPRVVYGADDPKGGCSGSLMNLLQQSNFNHRAIVDKGVLKEACSTLLTTFFKNLRANKKSTN", "soluble on expression in E. coli": "soluble"}
{"sequence": "SLYDGDCPLCMREVNMLMERNEKHGTIKFVDISSNDYSPEDNQGLDYKTVMGQIHAIQSDGNVVKGVEAFRRLYEEVGLGWVYTITKFEPIGKLADVVYDVWAKYRLQVTGRPSIEAILEARKKDKVGNKGYRFSVVVTFAR", "soluble on expression in E. coli": "soluble"}
{"sequence": "MGSDKIHHHHHHMILCAGEALIDMLPRKTEAGEAAFAPYPGGSVFNTAVALSRLGTKTEFFSGLSTDLFGERLDSVLMANGVGSALAHRNDRPTTLAFVTLTDGHASYAFYDENTAGRMLTEADLPAIPETAKACFFGGISLAVEPCADAYAALIGRANDLGRVVMIDPNIRPGFIADEARFRARLDQMLAQTDIIKASDEDLRWLLGDMSLPELAEALRAKGPSVVLVTQGAAGVTGFYAGGEIHVDAEAVTVVDTVGAGDTFNAGVLAGLDDAGALDKAMIAKGLDAETLRGAMELGVRASAVTVTRAGANPPRRDELS", "soluble on expression in E. coli": "not soluble"}
{"sequence": "MTIGIDKINFYVPKYYVDMAKLAEARQVDPNKFLIGIGQTEMAVSPVNQDIVSMGANAAKDIITDEDKKKIGMVIVATESAVDAAKAAAVQIHNLLGIQPFARCFEMKEACYAATPAIQLAKDYLATRPNEKVLVIATDTARYGLNSGGEPTQGAGAVAMVIAHNPSILALNEDAVAYTEDVYDFWRPTGHKYPLVDGALSKDAYIRSFQQSWNEYAKRQGKSLADFASLCFHVPFTKMGKKALESIIDNADETTQERLRSGYEDAVDYNRYVGNIYTGSLYLSLISLLENRDLQAGETIGLFSYGSGSVVEFYSATLVEGYKDHLDQAAHKALLNNRTEVSVDAYETFFKRFDDVEFDEEQDAVHEDRHIFYLSNIENNVREYHRPE", "soluble on expression in E. coli": "soluble"}
{"sequence": "AIASRAASLRAELTSLANAFEEERISSAERLDADLVRQAVEQAKPENLEQWKQVVHDATAKLQQFWEDSEQALIRETYALATSYLRESDDEVHRLQMTKKALEEQLETERRRSTRIEEQLAALQSRLLDSAAPAATTPADDARTQQEVLRSELQGFMQELVRNQRESLRVLQEELQRVREEASVREENLLRQIAHLKTELAVARTDNEVSSRQLRQLETSAGREEVQDELGPGTIWPPHLTPRRGHRRFQRHNRLEDAPAPPEF", "soluble on expression in E. coli": "soluble"}
{"sequence": "MGSDKIHHHHHHLYRIFRPIARFIVWVLNGHLHVHHKERLPEGTYILVAPHRNWWEPILFALAASPTEFMFMTKQELFKNPVLRWILNNAHAFPVNREHPSPSVIKIPVRGLKSEGLSLIMFPSGTRHSASLKSGALVIARMSGRPLLPAVYQGPLTFKGVLQRKGIEINFGNPIVIDRKTKLTPETEAAYNQQLEDAWKQIDQELDPDFHYEAK", "soluble on expression in E. coli": "not soluble"}
{"sequence": "MGSDKIHHHHHHMTQQVINSTSKNHLSPLENQKRYRVVLVHPSAGVNWSGGSEIFAIELARHLNSYFNVELLSGADCGSFSFPSGGISRTQAFNIVRHPLISKLLSRFASHPEIVIEHLSNFFPCAIQLLTKSADLIFPCNDYGGMAMAAFVRAIKGTPILFTEHVGLLGGGKSLTRNLRFHPDQLVVFSEAMAEFVRSVQPQQKVSIIPNGVDINRFTPVGNYINFGLPKPIVLCVASLKRHSHKRIGLAMEAVARLPQISLLLCGDGIDRDYFQAKGDELLGKERFKIQSFPYEQMPTVYRSADVFTLPSIDEPFGLAYVEAMASGLPVIATDDEMRRQIVGDAGRLCDVTNPDIYAAAIREILTQDWQVRARQKALGFSWENIALRYRELILKTIQGDQQNH", "soluble on expression in E. coli": "not soluble"}
{"sequence": "VTGPTEESAVATVADWPEGLAAVLRGAADQARAAVVEFSGPEAVGDYLGVSYEDGNAATHRFIAHLPGYQGWQWAVVVASYSGADHATISEVVLVPGPTALLAPDWVPWEQRVRPGDLSPGDLLAPAKDDPRLVPGYTASGDAQVDETAAEIGLGRRWVMSAWGRAQSAQRWHDGDYGPGSAMARSTKRVCRDCGFFLPLAGSLGAMFGVCGNELSADGHVVDRQYGCGAHSDTTAPAGGSTPIYEPYDDGVLDIIEKPAES", "soluble on expression in E. coli": "soluble"}
{"sequence": "MSEEIVLKAGGKIYQGWTKIGITRSLEAMSGAFDLEMTYKFLGNDAQYKAFIEPIKQGQACTVDIGGERVITGYVDDWVPSYDESTITISVSGRDKTADLVDCSIDYPSGQFNNQTLTQIADIVCKPFGIKVIVNTDVGEPFQRIQIEQGETPHELLARLAKQRGVLLTSDTFGNLVITRASKTKAGVSLILGDNVKAARGRFSWRQRFSKFTIKAAGAAHGQWDSAGLPTVGGIKADVTDSEIGRYRPLIIVNEEVTTAEGAAKRGQWERQRSIGKSNMAEYTVTGWRIPQTGKLWNINTLVPVIDEIMGLDEEMLIASILFSEDDAGRLAVISVVRPDAMDIPAQIVKDTKLGGSTW", "soluble on expression in E. coli": "soluble"}
{"sequence": "MVLPALPAPPVCDSQNECVGWLGVAYSAVVDVIRAAAHEGVYIEPEARGRLDALREWIYYNYYTERAKRRDRRRRSVCHARTWFCFRKYDYVRRSIWHDTTTNTISVVSAHSVQ", "soluble on expression in E. coli": "soluble"}
{"sequence": "MAHHHHHHMDLIQWPLPYQDELLNFYIFNDSKFVGGQNRWNLFKKKVMHHNIHVISNCYCQISLLRLSQLLNASVDDSESFLSELVSNKILNAKIDRLHGIIKFGQKKTPEVLLNNWSSQIHQILNLLEESSHLIQKERMLHEAKLKRMQLESKNMSL", "soluble on expression in E. coli": "not soluble"}
{"sequence": "MADVTGIALGMIETRGLVPAIEAADAMTKAAEVRLVGRQFVGGGYVTVLVRGETGAVNAAVRAGADACERVGDGLVAAHIIARVHSEVENILPKAPQA", "soluble on expression in E. coli": "soluble"}
{"sequence": "MGSDKIHHHHHHMAKKLFDYQLDETVDGYFLLKDSEVRIAKNGKKFLAINFQDTSGEISGKFWDASDTDVENFQAGRIVHLKGKRENYQGNPQIKIQQMRLTHSGEPQEVQQFVEHAPLKTDTMADEINQFVFEITEPNWNRIVRHMLTTFHDRFFSYPAAKKNHHAFAGGLAYHTLSILRLAKAVADQYPHVNRALLYAGAILHDMGKTIEMSGPVSTTYTLAGNLVGHIVLIDEQIVETCQQLKIDEQSESVLVLRHTILAHHGLLEYGSPVRPHIMEAEILHDLDELDASIQMMQTSLGHAEPGTYTERIFAMDGRNFYRPTGDQTKGELPDEQN", "soluble on expression in E. coli": "not soluble"}
{"sequence": "MTIRVAINGFGRIGRNFLRCWFGRQNTDLEVVAINNTSDARTAAHLLEYDSVLGRFNADISYDENSITVNGKTMKIVCDRNPLNLPWKEWDIDLVIESTGVFVTAEGASKHIQAGAKKVLITAPGKAEGVGTYVIGVNDSEYRHEDFAVISNASCTTNCLAPVAKVLHDNFGIIKGTMTTTHSYTLDQRILDASHRDLRRARAAAVNIVPTTTGAAKAVALVIPELKGKLNGIALRVPTPNVSVVDLVVQVEKPTITEQVNEVLQKASQTTMKGIIKYSDLPLVSSDFRGTDESSIVDSSLTLVMDGDLVKVIAWYDNEWGYSQRVVDLAELAARKSGRLGLVQTLLISSQDSLPLTGGFFVAKREHPRSQDSINPSGPD", "soluble on expression in E. coli": "soluble"}
